In the supplement of paper PMC12042874:
± gives the uncertainty stated by the source.

Assay: amyloid nucleation score (Sup35N fusion, yeast selection) (log enrichment); library NNK2; higher = more nucleation; inactive = no reads after selection
Procedure, shortened: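 Sup35N fusions to peptides of 20 random codons were expressed in psi-negative yeast, induced 24 hours with 100 μM copper sulfate, and grown 7 days at 30°C on medium lacking adenine and uracil. Input and output plasmid inserts were sequenced by Illumina. The nucleation score is the DiMSum log enrichment of output over input reads, centred on the mode score of non-aggregating sequences. Sequences with under 100 input reads were excluded.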

| Substance | amyloid nucleation score |
| --- | --- |
| SVVAVFLKYCVVADSATGV | 0.001 ± 0.76 |
| SVVFKNSVWYSITNHNIMSL | 1.57 ± 0.29 |
| SVVWCWCSEW | 0.602 ± 0.81 |
| SVVWFNTMYLYDWLHKPICI | inactive |
| SVWTFLTCI | 0.906 ± 0.46 |
| SVWVCPPLFGQMCAGVTNNR | -0.014 ± 0.41 |
| SVYGKFLYF | 2.23 ± 0.11 |
| SVYVVGFLCQGYSSLRSLVA | 4.42 ± 0.089 |
| SWCACSLGSQYGTMSGWLLY | 0.162 ± 0.37 |
| SWCCGCFLLCVPRTVSSFVR | 0.167 ± 0.39 |
| SWGNLWKSYCAK | -0.55 ± 0.49 |
| SWIIGVWIR | -0.287 ± 0.45 |
| SWLSQKSLESALRAIMNGKY | 2.13 ± 0.16 |
| SWLVDPTLGTRLSFTVMYRC | 0.053 ± 1.1 |
| SWNIFPQSNLKSKWDTIRCL | -2.46 ± 0.62 |
| SWRNSKISMPNSAFTSQDTV | 0.052 ± 0.31 |
| SWSAIEPQVPKYYYSL | -0.623 ± 0.79 |
| SWTLFKTLMWIRHILFVECR | -0.973 ± 0.55 |
| SYCKPTVIACVMLSCQQ | 8.866 ± 0.067 |
| SYCSLVFLTDISSYIGFQCV | 5.16 ± 0.078 |
| SYFNVNWARFQVGYSLIVCL | 6.131 ± 0.04 |
| SYGDRLALQR | 0.546 ± 0.8 |
| SYLCDPLRETTYSPKYLRST | 0.667 ± 0.38 |
| SYLFVSVDLHFIEVFYR | 1.44 ± 0.12 |
| SYLKYVDWQTFKVTWCAGGN | -0.38 ± 0.54 |

| Substance | amyloid nucleation score |
| --- | --- |
| SYLSCGQKKHWCWPKVDSFR | -0.444 ± 0.42 |
| SYNYLYILRCYYLDVHSFRT | -0.788 ± 0.76 |
| SYPAKDRNLYDCYLCPVSYL | -1.16 ± 0.61 |
| SYPDELNLEFGCYHQSWTYF | 3.67 ± 0.058 |
| SYRNTIWVSINALGVSWEAS | 2.52 ± 0.078 |
| SYSLRFWYIPVADFWLL | -0.938 ± 0.36 |
| SYTNLGPAGCVALSKYSVIR | -1.18 ± 1.1 |
| SYVCRIERADVACWVKEEGA | 0.857 ± 0.28 |
| SYVFAPWFLVILPKSISMD | 4.58 ± 0.079 |
| SYVGMFRTLDVKLRLNKCGY | -0.038 ± 1.1 |
| SYYFLLLFVQT | -0.017 ± 0.76 |
| SYYQCCSG | 3.15 ± 0.14 |
| TALFGISMVCSGRG | -0.583 ± 1.1 |
| TAMEVPHRIWLR | -0.305 ± 1.1 |
| TAQILLSTGSVLHLMLGGSP | 3.02 ± 0.088 |
| TAWSMNVHVSANVSTCRPLR | 1.87 ± 0.2 |
| TCARSVYDNLSLINLTRG | 1.73 ± 0.1 |
| TCDWLKAFIAWF | 1.53 ± 0.3 |
| TCGDGPATYTQT | 0.132 ± 0.38 |
| TCGLSIVDYWSLR | -0.99 ± 1.1 |
| TCGTVSNSRASRQFESSSNA | 0.633 ± 0.18 |
| TCIFVNDFSMSGWDCMLFY | 4.4 ± 0.062 |
| TCILMLCQECVCTF | 9.809 ± 0.051 |
| TCLGSRWLT | 0.653 ± 0.33 |
| TCLYP | -0.707 ± 0.55 |

| Substance | amyloid nucleation score |
| --- | --- |
| TCTQPFLVGCVERSLYES | -0.317 ± 0.28 |
| TCYRSDRPIRRRVAFALTEG | 1.04 ± 0.41 |
| TCYTKPLNEYYE | 0.011 ± 0.56 |
| TDFFCLTIFFNVEHVISKCI | 2.14 ± 0.17 |
| TDISQEGPVNIL | inactive |
| TDKKACNLNDANVS | -0.014 ± 0.76 |
| TDLASKAS | -0.194 ± 0.48 |
| TDLTQF | -0.375 ± 1.1 |
| TDLWFRLATRCNDNDAFFL | -0.981 ± 1.1 |
| TDSAFLCHIAWTPFTVH | 0.866 ± 0.48 |
| TEAFKGLSLS | 0.184 ± 0.49 |
| TELVWLPWTRFCFGRNYRG | 0.101 ± 0.35 |
| TFAVFSYLRFIATNSGNIKA | -0.606 ± 0.48 |
| TFDWKTSKPYANKPLRFETS | 0.284 ± 0.34 |
| TFFYCGPRKLFYKI | -0.387 ± 1.1 |
| TFHFQTRLCYLALYDHAIYA | -0.242 ± 0.79 |
| TFIFWGTAELVNNNLGLRC | -0.479 ± 0.48 |
| TFKILLRCGNNLFGSKAFDM | 3.63 ± 0.05 |
| TFKSNLV | 0.092 ± 0.17 |
| TFLSGLCIAACSIMGFNQSS | -1.6 ± 0.78 |
| TFLVLLRVMVWVV | 0.648 ± 0.6 |
| TFNACNK | 0.349 ± 0.18 |
| TGFGLMHGLAGKCCLRFFIT | -0.116 ± 0.35 |
| TGGRF | 0.264 ± 0.8 |
| TGKYICRW | -0.843 ± 0.38 |

| Substance | amyloid nucleation score |
| --- | --- |
| TGLCHPIGLPDRFRYIIRSL | -0.789 ± 0.55 |
| TGLVFVLMCKSCQWFFREML | -0.948 ± 0.42 |
| TGLVVDCLAYRDCSVKQDRA | 0.582 ± 0.34 |
| TGSVREYCGEVPWRLCDDRV | 0.244 ± 0.62 |
| TGTAVG | 3.23 ± 0.073 |
| TGVLCGSYFFWLF | 5.15 ± 0.058 |
| TGVYRWSEMSMVMFFFHVEC | -0.226 ± 0.63 |
| TGWCGL | 5.54 ± 0.066 |
| TGWNDATRY | -0.467 ± 0.49 |
| TGWTFWGGCRWM | 4.57 ± 0.12 |
| THCKGIYLSCMTSDFVHSYY | inactive |
| THLHCCYRETISDP | 0.175 ± 0.33 |
| TIATPHCVYDSCGCSVVSSV | 0.176 ± 0.56 |
| TIFFRCHWIRGLLVHLMF | inactive |
| TIGGEASVPRRMPLYTLQCE | 6.03 ± 0.088 |
| TIGPKFLLIIKMRCLWMNEE | 0.105 ± 1.1 |
| TIGRSFYELPFYGAILFWMR | 1.45 ± 0.21 |
| TIIRRDSLESQRRHCPMVVV | 0.351 ± 0.64 |
| TISMEVEYCV | -0.1 ± 1 |
| TIYVRQ | -1.4 ± 1.1 |
| TKEHYYR | 0.048 ± 0.5 |
| TKFVWDQNLVSSLINCGQSL | -0.841 ± 1.1 |
| TKGFVTGVGGRSLIIVGCGA | 0.664 ± 0.51 |
| TKICWGSCRHLDLAFFLFLY | inactive |
| TKRMLERVTFFVHWCWLWSV | 1.09 ± 0.15 |

| Substance | amyloid nucleation score |
| --- | --- |
| TLDGLDS | -0.283 ± 0.25 |
| TLDVIGIYLAGVGRFDGKSA | 0.261 ± 0.49 |
| TLFCIVMYCTKVETNFLVLH | 6.45 ± 0.085 |
| TLFNMMIYSL | 1.09 ± 0.54 |
| TLFSSRRYSVGERSQVTCLI | -0.492 ± 0.55 |
| TLGNKFLKSWYMGASKTMCV | -1.78 ± 0.75 |
| TLIGNDDLVVTCTYSYDPTL | -0.145 ± 1.1 |
| TLKACKNFYGGIFCNHGSES | -0.72 ± 1.1 |
| TLNNCRPFCLLELANLINRD | 3.4 ± 0.058 |
| TLNSRWVNNSPVEM | -0.12 ± 1 |
| TLPCFRVFYVTFQYSNHLLS | 8.55 ± 0.042 |
| TLPSPIRYRVNTNNRM | 0.397 ± 0.54 |
| TLSKYCEDKFEWFCIAVICR | 6.95 ± 0.04 |
| TLTLSTIHWNLY | 6.13 ± 0.066 |
| TLTYFLNSSWD | 1.93 ± 0.25 |
| TMGKCITIGPAFIHNT | 1.51 ± 0.32 |
| TMGYDSSTVTVFGGSMFLRL | 2.56 ± 0.2 |
| TMILVCRRAFKCYLTQDWSD | 0.538 ± 0.3 |
| TMIYMHRLLLNVVDVCCHWF | 0.261 ± 0.74 |
| TMKHPDMS | -0.152 ± 0.55 |
| TMKLLQRYYLSFFPI | -1.72 ± 0.64 |
| TMLYKWKVGNTFSHVLCLLL | -0.14 ± 1 |
| TMPTY | 0.709 ± 0.66 |
| TMVALKI | -0.15 ± 0.44 |
| TMYRYASFKADLSDFKAAYE | 0.524 ± 0.81 |

| Substance | amyloid nucleation score |
| --- | --- |
| TMYYVTGGV | 2.44 ± 0.056 |
| TNDYSFWVLSHTANQPSLME | inactive |
| TNFFLNKRAGYNWLLVFEVI | -0.886 ± 0.48 |
| TNLQSVRYVAHTF | 3.96 ± 0.068 |
| TNVGCRVLCTLRSVTPDVVR | 0.646 ± 0.62 |
| TNWQGQRIRYAKDLGGPCGL | 0.506 ± 0.35 |
| TPDLSLLFIIRRCIFSGTPY | inactive |
| TPHGIYEHLPQEY | -0.273 ± 0.49 |
| TPILFVT | -0.746 ± 0.56 |
| TPPTHWSFFMIWARCEKLGG | -1.01 ± 0.64 |
| TQLLQHGGGFRSRISSRLGR | 1.21 ± 0.41 |
| TQRHATENLKFTTWAYKSRE | 0.994 ± 0.16 |
| TQSNALPVGPYSFTFFGRGY | 0.54 ± 0.8 |
| TRFGPPVHSKLCPPAMWPGW | 0.691 ± 0.23 |
| TRISMRLWFSGRELIEALKF | -0.29 ± 0.65 |
| TRLMCMFERYQACFTDLSDI | -0.698 ± 0.54 |
| TRMDNAY | -0.132 ± 0.65 |
| TRNYLFTTSNWYVSSKMSNS | -0.632 ± 0.56 |
| TRWARYALNVIEHWQLSWVK | 0.145 ± 0.63 |
| TRWSANYPRCWPTMRRCLSL | 0.858 ± 0.51 |
| TSCFLLIQGIFGGLGITGMP | 2.97 ± 0.099 |
| TSFLNLIFIYLALKRWLILF | 4.74 ± 0.06 |
| TSFQVFINYVSL | 7.605 ± 0.046 |
| TSHSFVLVY | -0.705 ± 0.33 |
| TSIIVTMLDPYWVISNSCAH | 5.701 ± 0.038 |

| Substance | amyloid nucleation score |
| --- | --- |
| TSIYLVLGYIFESATRLF | 0.144 ± 0.79 |
| TSLDRRICKRGTVIVEIPHA | 5.28 ± 0.055 |
| TSNSII | -0.876 ± 0.49 |
| TSPRCYRFMIQSMYGLRTRV | 0.883 ± 0.17 |
| TSPSKLFRDLFYHPRSKPVA | 0.708 ± 0.41 |
| TSSSYTWLIKSMRVFTNYNV | -1.32 ± 0.38 |
| TSSWRVWAYQSAAANMHTDL | 5.01 ± 0.06 |
| TSVGYMMLSNW | 4.88 ± 0.095 |
| TSVQFCLLICLFRSTGNCAR | 2.1 ± 0.1 |
| TSVVFWWGKGGKVGEPNEAG | 0.147 ± 1.1 |
| TSWNWSFFWCTYYLFTQVRG | -0.772 ± 0.42 |
| TSWVYDEYVVCLPSWASYVL | -0.509 ± 1.1 |
| TSYTWDHCGGHIKSRYSGVG | inactive |
| TTDCG | -0.712 ± 0.33 |
| TTEWFHESFREQFVMESFVS | -1.26 ± 0.41 |
| TTGHQLNDCYLKGCFSEWIL | -0.073 ± 1 |
| TTLYGGAFIGIGYVGRHTEN | 3.21 ± 0.15 |
| TTMCMGLLTNWWAGRCL | 2.76 ± 0.1 |
| TVCKPIRWLNNEFCDYVSNT | -0.644 ± 0.31 |
| TVCSIMASFQYRDSRRQRSG | 4.02 ± 0.078 |
| TVELLGILAHCSFCS | 8.247 ± 0.054 |
| TVHRCD | 0.627 ± 0.57 |
| TVMLFVSLQRCH | inactive |
